A short description of this data set: label from the status in PepcDB records.
In the case of “MTLVLILLALIAFIVLSTTRLKLHPFLALLAAALIAGFAYQVPTAEIVKTVTGGFGSILGYIGIVIVLGTIIGVILERSGAAITMAESVIRLLGERFPTLTMSIIGYLVSIPVFCDSGFVILNSLKNALAARMKISTIAMSVALATGLYATHTFVPPTPGPIAAAGNLGLDASLGLVIVVGLVVAFVTAMAGMWWANRFVGKDIPLVDDGQVVQTEEDFSELRARYGKLPSATQAFAPIFVPILLICLGSVAVFPSKPLGEGVLFACLNFLGQPVIALLVGLALACTLLKGQSKREEFHERVVEGIQSAAPILLITGAGGAFGAMLKITPLGDYLGSTLSALGIGLFMPFVVAAALKTAQGSTTVALVTTSALVAPLLPQLGLDSEMGRVLTVMAIGAGAMTVSHANDSFFWVVTQFSRMTVSTAYRAQTLATLVQGIAGMLAVWLLSLVLL”, the protein production entry is reported as “failed”.

Consider “MTLWQLIKAEIRSVLTNPVVTLTVFGGVVFYSFLYPLPYAQQTPREQPIAVVNLDGSQTSLKLERMVDATPQVKIVSRLHTVEDAKQAFLNREITGFLVIPEHFYKDVMLGKSPTLAYAADASYFLVYGTVVEGLAQAGGTLGAQVKVSKMVIEGVPLSLASHNYSAIKLNMKPTFNPTMGYIEYVVPAVFVLILQQTLIMAVGLQTGSQRHGRGYWSQVSTGSLLLVRTLVFIAIYYLLSAYYFGFSFERLSVNHIAKAGELLTMLFPFLLGCCGLGFWLGYLLPRRELVTLVVLVSSMPLIFLAGFIWPVESIPAPLLWIADLSPSTWSIKGFLALNQMGATWQQVAKHWTALWLLVALWGGVAYWIAKRNNKPVVTESLS”, for which the protein production entry is on record as “failed”.

Regarding “MTMLDAAAPPDLAGLFAPAQRRSRTVDWQEPGPVARAAMAMSGLEVMQAIRDGRLPPPPLARLIGFKMAEVHRGRIVMQLDPDQSLENTAGLLHGAIAAALLDTAMGCAISTQQPAGQGSVTMDLKLSYLRPLSVRSGTIVAEGRVVKLGRQSSYTEGFVYDGAGKLAVHATATFAMLGAGPVAAPHPHES”, the protein production result is “failed”.

With “MTMLLDGGPQFPGLGVGSFGAPRHHEMPNREPAGMGLNPFGDSTHAAAAAAAAAAFKLSPAAAHDLSSGQSSAFTPQGSGYANALGHHHHHHHHHHHTSQVPSYGGAASAAFNSTREFLFRQRSSGLSEAASGGGQHGLFAGSASSLHAPAGIPEPPSYLLFPGLHEQGAGHPSPTGHVDNNQVHLGLRGELFGRADPYRPVASPRTDPYAAGAQFPNYSPMNMNMGVNVAAHHGPGAFFRYMRQPIKQELSCKWIDEAQLSRPKKSCDRTFSTMHELVTHVTMEHVGGPEQNNHVCYWEECPREGKSFKAKYKLVNHIRVHTGEKPFPCPFPGCGKIFARSENLKIHKRTHTGEKPFKCEFEGCDRRFANSSDRKKHMHVHTSDKPYICKVCDKSYTHPSSLRKHMKVHESQGSDSSPAASSGYESSTPPAIASANSKDTTKTPSAVQTSTSHNPGLPPNFNEWYV”, the protein production entry is given as “not failed”.

As to “MTMLLSIIVPTFKPQKTYFEECLFSLFNQTMFHYLYEVIVVLNGDIDTQYTDMILDIFAYKPAGLYCRLIKTDQAGVSNARNLGIDAAKGQYIGFVDDDDIVSSDYLEELCKISSRNIVGVSNVHTFRKTIEEKEDNFFACRIIQQRECQYSLFRNRAILAFPVAKLIHRDIIGNRRFNPRFKNGEDALFMTEISDLIGGFRFTKEYTTYYVRERAGSASRRPLKRGQLCWDTFMLIKAYVSIYLSSPFSYNFLLFASRIPGSIKGAIKLSRNTAFFLEHHHHHH”, the protein production entry is reported as “failed”.

For the sequence “MTMMTATQALSVNPATGQTLAAMPWANAQEIEHALSLAASGFKKWKMTSVAQRAQTLRDIGQALRAHAEEMAQCITREMGKPIKQARAEVTKSAALCDWYAEHGPAMLNPEPTLVENQQAVIEYRPLGVILAIMPWNFPLWQVLRGAVPILLAGNSYLLKHAPNVTGCAQMIARILAEAGTPAGVYGWVNANNEGVSQMINDPRIAAVTVTGSVRAGAAIGAQAGAALKKCVLELGGSDPFIVLNDADLELAVKAAVAGRYQNTGQVCAAAKRFIVEEGIAQAFTDRFVAAAAALKMGDPLVEENDLGPMARFDLRDELHQQVQASVAEGARLLLGGEKIAGEGNYYAATVLADVTPDMTAFRQELFGPVAAITVAKDAAHALALANDSEFGLSATIFTADDTLAAEMAARLECGGVFINGYSASDARVAFGGVKKSGFGRELSHFGLHEFCNVQTVWKNRV”, the protein production result is “failed”.

For “MTMYADLVLHGGSIATLDDKLEQAQAVAIAAGRIIAVGSDAHCLALAGPGTRRIGLGGACVMPGINDSHCHPDGQAVKAGRWDDVSQVATQQALLARIADFHRRMPAGAWYLGFRFDDTHSGGYPARQALEQAAPGRPVFLLRRDAQVGLASAPALAALLASGLATQVPPHCLDAATGLARGRGVFAFTTHIAAADSLDDYLEGFPTLFAEMGRMGITSVHNALTSALAVQAYRALHGAGRLPVRVGMMLNGRDQRLVDETLAAGLRFGAGDDRLYLLGVEYGSDGSTSGRTAAYYQPYVGEEGGDGRPANRGDVNFSAEDLAAKVGRVMAAGLQAAATGNGDRGIDFALDAFEQGLRAHPGAVPPRIEHCCCAPPAIQQRMAALGVIDSSAAGFAYNLGDAYLRNRPSAEMAWMWPHRDMLDRGVLVCAHSDAPVCERNPFLGMWSMVTRKTASGASLGAGQAITPLEAMRCYTANPARAEGQAARKGTLSPGKLADLIVLDRDPCAVDPDEIRHTQVLATLVGGQATYRAAGAPSWADELPMRE”, the protein production entry was “failed”.

“MTNAMELYQMLPKTNCKKCGKTSCMAFAVALMARELTPEDCPPLKEEPKYKESYEKLSEIFKPSEGATETGLIVHEDLCFGCGNCVVACPPNVANDPYGVGSGKAPTNPGRLVLTVEDGVVKAQNLGECRRFGKNKILCNGCIVTCPVEAIEFV”: the protein production result is “failed”.

On to “MTNFNIDFYAPAKEQRASTHSVMGLSSVPHPSPLFLETPYSELWSRHFGSAVVSLSVTADLAMLAVACKNRQLTVLSRDGELHWSHRLDDDITATAIASNHHVAVGTQQASDGAVAVYLFDADGRELFRTSLKSAVSSLTHSSNGEHLVIQCKNQAWYIASRVADTYQLSQANAEDVAQSKRNDALLAVKDRLLSEPNLYPHAASVAVSLEGTAAIGSLDGKIHLIDCQGKPLWSRQVDGEVWTLGISENGAIIASGCTDGTVKLLANHAHDAYNQYIHALQHSAERLKNTAEQQQAVSEILASLSQTGLAVYAVNWLQEGTLQLAPDALDEIVIKLLSEQVQRFPKHYASHFILAQTYQRRQEWHQAARHFTWAGQNERMKLKSFTLAAESFQKAGLPFAAKSAYRRARELTVTEEAKKTLYTLGRIHEEQGSITDAQKYYEVVFTLNPDYLDVCARLQNLNSPPATLTSRAVPENKDWYASLIRELLSPVSQHGFDLARQDNPAHSRTARLTSVAEHRKRLLSIVSEFSLDSVDNTADARLGYDVAAYMRYDCSVPEDEAKKSLELVNMLDCIKHYGPFSKSLDIGAATGRYPTLLAQQGIQAFGVDLEPMAVEFARKKSNGALNPQFHQGDARDLPFESTQFDLVTCMMGTAAHFPRQDVPTVMSEIHRCLVPGGFCVISTWDIECPHLTYLSIYSHEQKELMRQNAISRADVSEIAIAQGFVVEEIRGVGLLPESLGYELDLQQDGPERIRNLLDMDLAFQAKFPDLHGQMYMLIIRKI”, for which the protein production result is recorded as “failed”.

In the case of “MTNFQRARSEEQRAVRRQAILDTTAAMLEEMPVGEVSLNELSRRVGLAKSNVLRYFESREAILLELLDRAWQQWVADLPALVHAGVDQGAPVSRRAEQFAAVIAASLAGRQVLCDLLSAQAGVLEHNVSPQVAARYKRAAVANVADIAALAHQHLPELGASAPQLTAVMIMAVGAVWTHARPSPAMLSAYEADPSLTAFKLDFVTTLQEMLATLTAGTIARESA”, the protein production result is on record as “not failed”.

Consider “MTNHNNSGKKKVAILIEQAVEDTEFIIPCNGLKQAGFEVVVLGSRMNEKYKGKRGRLSTQADGTTTEAIASEFDAVVIPGGMAPDKMRRNPNTVRFVQEAMEQGKLVAAVCHGPQVLIEGDLLRGKQATGFIAISKDMMNAGADYLDEALVVDGNLITSREPGDLAIFTTAILSRLGYGGKDAALPDEKDRNAEWWKLADAWGGSTKGDIVRGLNTALGGERYSLEALEKYTEKESDVEAKALFQEMITNKQRHIEYLETYLTRLGEKPSLSANIANQYAKVKTALTGSDDIYQIRSALGDIQTGIGDIGNLCAMYTDPIATAIFKEIYKDLVKYEQRLVSLYRTRTNATVQPPKPTTGAAVSM”, for which the protein production entry is reported as “not failed”.

“MTNIIKIRASVFIPMSWTEAKMDMETGQVIQFEGDSREFTPHAVNTMRSRVEQEVVVDFYKQEVFSYANTGITTEKVISPDGSVNKRTGKASTENIVCTDIVWNSGGVQFKMSASASNPLNVYAPPVDYVLNVCVKKDGSIDVQGEHDGFPCFEFYKQVDFGPFEKIYTHDFRETGDTAAALGGNMDYSFTKRL”: the protein production entry is “not failed”.

On to “MTNKVKSKRIAAIDWMRGFVMIIMVLDHVSMAYNKEHLSTDSAASYIIGSPLPAFEFFTRWISHICAPVFVFLAGTALAISVERKLSRGFDSKAIDKDILLRGAFIALLDPTITSFFSGKLIFQVLYAIGIAMMCMAFFRRLSSTQLLIIAMAWILGGELVTAQFWFAGGQEQSIIVALLIGKYSSADLSISYALVPWLSVMILGWVFGRYILDYGDGKVTISPANLLFRLGFTALAAFIAIRYFNDYGNMFLLREDNSWQQWLHVSKYPPSASFIMLELGLMAVILALMIKVEQRIGVRPNGVLLVFGQTSMMFYLVHRIFLTGTATYGGLSDFTNLTNTYIISGVLLLLLFPFCIWYRSFKVKHPDSLWLKYL”, for which the protein production result is listed as “failed”.

With “MTNLTNYHSHCLYCDGRANMEDFIRFAISEGFSSYGISSHAPLPFSTAWTMEWDRMDDYLSEFARLKEKYADKIELAIGLEIDYLNEESHPAIPRFQELPLDYRIGSVHMLYSPQGKVVDIDTPADIFRQLIDAHFEGDLDYVVHLYYKNLLRMVELGGFDILGHADKMHYNASCYRPGLLDEPWYDALVRDYFAEIARHGYIVEINTKSYHDLGTFYPNERYFPLLKELGIRVQVNSDAHYPERINNSRAEALAALKKVGFDTVVEWHGGQWKDMPLLQLEHHHHHH”, the protein production entry is given as “not failed”.

As for “MTNQHRASFPSPTRGEGRTRTALATLFLSILFLILPALAARAMDIQQVTSPKGITAWLVEDYSVPIVAVRFVFGGGSTQDPVGKEGLTNLMTGLFDEGAGPLDSEAFQVRLDDAGAEMSFEETRDGVYGSMRMLAEQRDEAFDLLRLAVNEPRFDQAPIDRIRAQILSGIIANENDPDTVAQHRWARAVYGDHPYSRSDQGTRQSIAAITKDDLKALHKAVFARGGLHVAVVGAIDAETLKKKLDMVFGDLPQNQALTPVADVEPKLAQRVEVNYDLPQTSLQLAWPGVKRKSADFFPAVLMNEILGGGTFTSRLFAEVREKRGLAYSVNSSLVNQDHADALIVTTGTRSDRAAETLGIVRDVARQLAEEGPTEAELAATKKYLIGAYAITNLDSSSSIAATLVELQLDDLGIDYMQRRAGYINAVTLDQVKAAAKKLLTAEPTIMVVGPPLAGAGKG”, the protein production entry was “failed”.

On to “MTNTLKTSYQKTPYKLGGNGPRNVGVLTEALQNIDDNLESDIYGNGAVIEDFETKIAKILGKQSAVFFPSGTMAQQIALRIWADRKENRRVAYHPLSHLEIHEQDGLKELQQITPLLLGTANQLLTIDDIKSLREPVSSVLIELPQREIGGQLPAFEELEKISEYCHEQGISLHLDGARLWEITPFYQKSAEEICALFDSVYVSFYKGIGGIAGAILAGNDDFVQEAKIWKRRYGGDLISLYPYILSADYYFEKRIGKMAEYFEAAKGLAERFNSCSGVKTVPEVPVSNMFHVYFENSADEIGAILTKIQDETGVGISGYLQEKSADVCAFEVSVGDAFAEIPAKNLELVFRCLEKEL”, for which the protein production entry is given as “not failed”.

Take “MTNWLIAYQGEPGAYSEIAALRFGEPLPCESFDDVFSAVTEQKADYAVIPIENSLGGSIHQNYDLLLRRPVVILAETFVKVEHCLLGLPGASVETATKAMSHPQALVQCHNFFATHPQIRAEAAYDTAGSAKMVAESRDKSALAIASKRAGELYGLDILKENLADEEWNITRFFCIAHENNPDISHLKVRPDVARQKTSIVFALPNEQGSLFRALATFALRGIDLTKIESRPSRKKAFEYLFYADFIGHREDQNVHNALENLREFATMVKVLGSYGVVNP”: the protein production result is “not failed”.

The values above are taken from a protein production outcome set (Wang et al. 2014).
